The values below come from patent US20160123962A1 (ALBERT EINSTEIN COLLEGE OF MEDICINE, published 2016).

First the molecules themselves.
B1: human recombinant CSF-1 (colony stimulating factor-1) (ligand, UniProt P09603 36-253, looked up)
chain: SEYCSHMIGSGHLQSLQRLIDSQMETSCQITFEFVDQEQLKDPVCYLKKAFLLVQDIMEDTMRFRDNTPNAIAIVQLQELSLRLKSCFTKDYEEHDKACVRTFYETPLQLLEKVKNVFNETKNLLDKDWNIFSKNCNNSFAECSSQDVVTKPDCNCLYPKAIPSSDPASVSPHQPLAPSMAPVAGLTWEDSEGTEGSSLLPGEQPLHTVDPGSAKQRP
notes: also called hCSF-1
B2: human IL-34 (interleukin-34) (ligand, UniProt Q6ZMJ4 21-242, looked up)
chain: NEPLEMWPLTQNEECTVTGFLRDKLQYRSRLQYMKHYFPINYKISVPYEGVFRIANVTRLQRAQVSERELRYLWVLVSLSATESVQDVLLEGHPSWKYLQEVETLLLNVQQGLTDVEVSPKVESVLSLLNAPGPNLKLVRPKALLDNCFRVMELLYCSCCKQSSVLNWQDCEVPSPQSCSPEPSLQYAATQLYPPPPWSPSSPPHSTGSVRPVRAQGEGLLP
modifications: biotinylated with EZ-Link Sulfo-NHS-LC-LC-Biotin in the pull-down and flow cytometry assays; unlabelled in SPR
notes: Purified protein; also called hIL-34; biotinylated hIL-34
B3: FLAG-tagged human IL-34 (ligand, UniProt Q6ZMJ4 21-242, looked up)
chain: B2 chain
notes: also called IL-34-FLAG; not shown: FLAG tag
B4: human tenascin-R (hTN-R) (other, UniProt Q92752 32-1358, looked up)
chain: QLEVTTERVQRQSVEEEGGIANYNTSSKEQPVVFNHVYNINVPLDNLCSSGLEASAEQEVSAEDETLAEYMGQTSDHESQVTFTHRINFPKKACPCASSAQVLQELLSRIEMLEREVSVLRDQCNANCCQESAATGQLDYIPHCSGHGNFSFESCGCICNEGWFGKNCSEPYCPLGCSSRGVCVDGQCICDSEYSGDDCSELRCPTDCSSRGLCVDGECVCEEPYTGEDCRELRCPGDCSGKGRCANGTCLCEEGYVGEDCGQRQCLNACSGRGQCEEGLCVCEEGYQGPDCSAVAPPEDLRVAGISDRSIELEWDGPMAVTEYVISYQPTALGGLQLQQRVPGDWSGVTITELEPGLTYNISVYAVISNILSLPITAKVATHLSTPQGLQFKTITETTVEVQWEPFSFSFDGWEISFIPKNNEGGVIAQVPSDVTSFNQTGLKPGEEYIVNVVALKEQARSPPTSASVSTVIDGPTQILVRDVSDTVAFVEWIPPRAKVDFILLKYGLVGGEGGRTTFRLQPPLSQYSVQALRPGSRYEVSVSAVRGTNESDSATTQFTTEIDAPKNLRVGSRTATSLDLEWDNSEAEVQEYKVVYSTLAGEQYHEVLVPRGIGPTTRATLTDLVPGTEYGVGISAVMNSQQSVPATMNARTELDSPRDLMVTASSETSISLIWTKASGPIDHYRITFTPSSGIASEVTVPKDRTSYTLTDLEPGAEYIISVTAERGRQQSLESTVDAFTGFRPISHLHFSHVTSSSVNITWSDPSPPADRLILNYSPRDEEEEMMEVSLDATKRHAVLMGLQPATEYIVNLVAVHGTVTSEPIVGSITTGIDPPKDITISNVTKDSVMVSWSPPVASFDYYRVSYRPTQVGRLDSSVVPNTVTEFTITRLNPATEYEISLNSVRGREESERICTLVHTAMDNPVDLIATNITPTEALLQWKAPVGEVENYVIVLTHFAVAGETILVDGVSEEFRLVDLLPSTHYTATMYATNGPLTSGTISTNFSTLLDPPANLTASEVTRQSALISWQPPRAEIENYVLTYKSTDGSRKELIVDAEDTWIRLEGLLENTDYTVLLQAAQDTTWSSITSTAFTTGGRVFPHPQDCAQHLMNGDTLSGVYPIFLNGELSQKLQVYCDMTTDGGGWIVFQRRQNGQTDFFRKWADYRVGFGNVEDEFWLGLDNIHRITSQGRYELRVDMRDGQEAAFASYDRFSVEDSRNLYKLRIGSYNGTAGDSLSYHQGRPFSTEDRDNDVAVTNCAMSYKGAWWYKNCHRTNLNGKYGESRHSQGINWYHWKGHEFSIPFVEMKMRPYNHRLMAGRKRQSLQF
notes: Extracellular matrix protein used as analyte in SPR
B5: FLAG-tagged human CSF-1 (ligand, UniProt P09603 33-255, looked up)
chain: EEVSEYCSHMIGSGHLQSLQRLIDSQMETSCQITFEFVDQEQLKDPVCYLKKAFLLVQDIMEDTMRFRDNTPNAIAIVQLQELSLRLKSCFTKDYEEHDKACVRTFYETPLQLLEKVKNVFNETKNLLDKDWNIFSKNCNNSFAECSSQDVVTKPDCNCLYPKAIPSSDPASVSPHQPLAPSMAPVAGLTWEDSEGTEGSSLLPGEQPLHTVDPGSAKQRPPR
notes: also called CSF-1-FLAG; not shown: FLAG tag

In assay [1] the target is human PTP-ζ (protein tyrosine phosphatase receptor type zeta) of U251 human glioblastoma cells (human) (UniProt P23471). The assay can be described thus: cell-based or functional assay.
Sequence of human PTP-ζ (protein tyrosine phosphatase receptor type zeta) of U251 human glioblastoma cells (human) (P23471 25-2315 limits assumed): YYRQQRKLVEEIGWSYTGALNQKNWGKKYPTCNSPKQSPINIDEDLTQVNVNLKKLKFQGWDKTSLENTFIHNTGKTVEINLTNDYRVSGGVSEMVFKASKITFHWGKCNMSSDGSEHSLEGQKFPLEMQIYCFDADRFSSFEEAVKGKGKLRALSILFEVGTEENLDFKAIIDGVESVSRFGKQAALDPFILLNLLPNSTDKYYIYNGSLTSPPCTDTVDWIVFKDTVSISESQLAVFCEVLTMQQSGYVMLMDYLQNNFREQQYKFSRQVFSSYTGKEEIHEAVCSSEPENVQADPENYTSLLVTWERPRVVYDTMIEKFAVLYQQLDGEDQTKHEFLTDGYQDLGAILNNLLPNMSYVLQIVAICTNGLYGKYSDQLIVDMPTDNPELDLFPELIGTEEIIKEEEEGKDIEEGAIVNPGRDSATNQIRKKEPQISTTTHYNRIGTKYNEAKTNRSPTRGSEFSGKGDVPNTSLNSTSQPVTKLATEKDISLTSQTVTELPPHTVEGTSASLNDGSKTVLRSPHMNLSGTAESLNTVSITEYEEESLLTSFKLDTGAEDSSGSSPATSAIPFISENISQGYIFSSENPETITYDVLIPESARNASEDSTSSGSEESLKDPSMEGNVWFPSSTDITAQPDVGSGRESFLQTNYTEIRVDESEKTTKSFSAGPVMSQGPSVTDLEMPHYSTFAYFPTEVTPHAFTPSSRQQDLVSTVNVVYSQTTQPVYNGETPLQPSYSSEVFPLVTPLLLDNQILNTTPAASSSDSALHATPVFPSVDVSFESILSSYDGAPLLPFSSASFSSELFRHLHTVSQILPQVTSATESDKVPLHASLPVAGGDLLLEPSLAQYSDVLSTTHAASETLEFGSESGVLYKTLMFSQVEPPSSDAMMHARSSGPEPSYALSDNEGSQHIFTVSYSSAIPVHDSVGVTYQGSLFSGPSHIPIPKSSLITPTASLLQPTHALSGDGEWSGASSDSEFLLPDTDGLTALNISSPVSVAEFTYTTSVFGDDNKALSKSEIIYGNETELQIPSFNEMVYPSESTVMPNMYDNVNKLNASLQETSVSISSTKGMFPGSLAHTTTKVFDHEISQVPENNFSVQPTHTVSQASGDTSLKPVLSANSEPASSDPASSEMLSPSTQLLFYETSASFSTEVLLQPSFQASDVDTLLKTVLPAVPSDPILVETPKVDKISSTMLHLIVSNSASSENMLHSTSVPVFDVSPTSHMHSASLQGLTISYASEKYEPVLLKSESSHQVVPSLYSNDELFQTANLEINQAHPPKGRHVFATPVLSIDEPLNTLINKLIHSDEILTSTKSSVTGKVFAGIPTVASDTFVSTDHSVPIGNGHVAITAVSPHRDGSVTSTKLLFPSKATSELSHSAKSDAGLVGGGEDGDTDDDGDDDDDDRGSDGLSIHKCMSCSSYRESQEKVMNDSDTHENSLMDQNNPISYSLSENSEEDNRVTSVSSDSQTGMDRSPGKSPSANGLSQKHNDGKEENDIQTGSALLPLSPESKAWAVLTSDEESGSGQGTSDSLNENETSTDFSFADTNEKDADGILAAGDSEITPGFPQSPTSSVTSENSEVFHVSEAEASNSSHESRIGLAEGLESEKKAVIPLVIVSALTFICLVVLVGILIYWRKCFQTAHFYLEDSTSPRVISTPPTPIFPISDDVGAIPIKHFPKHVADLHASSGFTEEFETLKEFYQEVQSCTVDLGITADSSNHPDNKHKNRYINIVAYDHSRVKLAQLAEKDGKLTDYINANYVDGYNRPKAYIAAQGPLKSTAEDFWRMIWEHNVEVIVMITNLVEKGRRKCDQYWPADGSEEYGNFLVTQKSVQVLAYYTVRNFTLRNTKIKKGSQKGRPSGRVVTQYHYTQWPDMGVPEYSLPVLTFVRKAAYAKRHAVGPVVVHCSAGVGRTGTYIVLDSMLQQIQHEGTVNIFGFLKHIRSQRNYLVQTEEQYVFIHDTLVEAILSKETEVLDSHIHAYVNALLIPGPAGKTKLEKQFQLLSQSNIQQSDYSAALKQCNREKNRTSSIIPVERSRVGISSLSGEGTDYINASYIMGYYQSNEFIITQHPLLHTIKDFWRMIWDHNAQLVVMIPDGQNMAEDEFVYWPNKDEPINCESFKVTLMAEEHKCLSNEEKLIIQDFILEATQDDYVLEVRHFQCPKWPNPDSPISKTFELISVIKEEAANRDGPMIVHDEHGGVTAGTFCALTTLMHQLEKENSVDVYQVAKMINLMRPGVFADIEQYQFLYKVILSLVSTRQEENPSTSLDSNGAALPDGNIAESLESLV
The target in assay [2] is T1, human CSF-1R extracellular domain fused to immunoglobulin Fc domain (hCSF-1R-ECD-Fc) (human, UniProt P07333 20-517).
T1 construct: extracellular domain; not shown: immunoglobulin Fc domain
T1 sequence (P07333 20-517): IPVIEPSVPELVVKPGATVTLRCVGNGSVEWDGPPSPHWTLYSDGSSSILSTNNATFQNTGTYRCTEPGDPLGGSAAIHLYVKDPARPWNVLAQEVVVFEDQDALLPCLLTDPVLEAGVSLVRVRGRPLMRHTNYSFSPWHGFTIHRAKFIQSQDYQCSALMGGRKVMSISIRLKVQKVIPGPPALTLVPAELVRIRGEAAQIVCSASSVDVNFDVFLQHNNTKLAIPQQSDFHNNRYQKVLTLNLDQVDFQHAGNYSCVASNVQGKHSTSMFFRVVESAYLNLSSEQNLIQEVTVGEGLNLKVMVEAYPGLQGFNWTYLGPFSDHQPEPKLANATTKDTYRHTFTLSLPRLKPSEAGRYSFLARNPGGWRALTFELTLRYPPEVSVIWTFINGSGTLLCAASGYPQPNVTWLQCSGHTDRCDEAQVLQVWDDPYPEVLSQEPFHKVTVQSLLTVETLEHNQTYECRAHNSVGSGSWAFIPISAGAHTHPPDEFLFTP
The assay can be described thus: SPR (Biacore T100), hCSF-1R-ECD-Fc captured on Protein A, hCSF-1 as analyte; hCSF-1 on hCSF-1R-ECD-Fc. How it is done: (§1) SPR binding analyses were performed at 25° C. on Biacore instruments. […] The protein A surface was regenerated with 10 mM Glycine-HCl, pH 1.5. […] All sensorgrams were double-referenced.
Background: In SPR one partner is held on a chip, and binding of the other changes the refractive index at the surface.

The target of another assay is T2, human brevican (human, UniProt Q96GW7 23-911, limits assumed).
T2 construct: Proteoglycan immobilized on the SPR chip
T2 sequence (looked up): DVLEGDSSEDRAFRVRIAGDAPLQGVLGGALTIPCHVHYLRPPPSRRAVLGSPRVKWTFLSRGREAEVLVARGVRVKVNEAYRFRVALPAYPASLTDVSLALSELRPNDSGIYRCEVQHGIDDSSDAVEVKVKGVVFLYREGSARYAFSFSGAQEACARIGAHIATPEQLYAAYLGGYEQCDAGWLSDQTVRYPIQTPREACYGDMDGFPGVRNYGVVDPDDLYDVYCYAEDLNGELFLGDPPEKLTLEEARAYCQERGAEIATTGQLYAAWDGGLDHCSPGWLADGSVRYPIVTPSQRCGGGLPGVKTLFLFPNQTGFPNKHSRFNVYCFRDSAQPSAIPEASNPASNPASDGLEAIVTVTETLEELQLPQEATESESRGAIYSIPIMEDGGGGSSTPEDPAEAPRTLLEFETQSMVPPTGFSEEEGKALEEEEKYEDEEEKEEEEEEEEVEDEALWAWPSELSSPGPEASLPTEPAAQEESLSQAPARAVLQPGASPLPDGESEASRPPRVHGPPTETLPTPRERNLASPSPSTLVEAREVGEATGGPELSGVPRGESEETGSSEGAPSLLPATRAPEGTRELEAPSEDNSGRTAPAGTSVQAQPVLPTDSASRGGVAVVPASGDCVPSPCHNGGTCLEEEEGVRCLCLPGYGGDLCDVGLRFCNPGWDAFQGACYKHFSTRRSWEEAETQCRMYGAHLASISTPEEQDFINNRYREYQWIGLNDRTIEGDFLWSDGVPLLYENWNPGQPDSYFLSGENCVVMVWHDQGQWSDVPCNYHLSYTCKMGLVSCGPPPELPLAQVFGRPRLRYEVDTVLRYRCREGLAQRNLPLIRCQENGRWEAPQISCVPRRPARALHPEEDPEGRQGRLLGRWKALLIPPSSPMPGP
The assay can be described thus: SPR, brevican immobilized on the chip, hIL-34 as analyte; IL-34 with human brevican. How it is done: as §1

For the assay “human tenascin-R (hTN-R)”, the target named is B4. In words: SPR (Biacore 3000), IL-34 immobilized on CM5 chip, hTN-R as analyte, steady state model; IL-34 with hTN-R. The procedure:
as §1

Assay [3] has as its target T1, human CSF-1R extracellular domain fused …. The assay can be described thus: SPR (Biacore T100), hCSF-1R-ECD-Fc captured on Protein A, hIL-34 as analyte; hIL-34 on hCSF-1R-ECD-Fc. The procedure: as §1
Assay [4] deals with T3, human PTP-ζ extracellular domain fused to immunoglobulin Fc domain (hPTP-ζ-ECD-Fc) (human, UniProt P23471 25-1636).
T3 construct: also called full-length hPTP-ζ ECD-Fc; not shown: immunoglobulin Fc domain
T3 sequence (P23471 25-1636): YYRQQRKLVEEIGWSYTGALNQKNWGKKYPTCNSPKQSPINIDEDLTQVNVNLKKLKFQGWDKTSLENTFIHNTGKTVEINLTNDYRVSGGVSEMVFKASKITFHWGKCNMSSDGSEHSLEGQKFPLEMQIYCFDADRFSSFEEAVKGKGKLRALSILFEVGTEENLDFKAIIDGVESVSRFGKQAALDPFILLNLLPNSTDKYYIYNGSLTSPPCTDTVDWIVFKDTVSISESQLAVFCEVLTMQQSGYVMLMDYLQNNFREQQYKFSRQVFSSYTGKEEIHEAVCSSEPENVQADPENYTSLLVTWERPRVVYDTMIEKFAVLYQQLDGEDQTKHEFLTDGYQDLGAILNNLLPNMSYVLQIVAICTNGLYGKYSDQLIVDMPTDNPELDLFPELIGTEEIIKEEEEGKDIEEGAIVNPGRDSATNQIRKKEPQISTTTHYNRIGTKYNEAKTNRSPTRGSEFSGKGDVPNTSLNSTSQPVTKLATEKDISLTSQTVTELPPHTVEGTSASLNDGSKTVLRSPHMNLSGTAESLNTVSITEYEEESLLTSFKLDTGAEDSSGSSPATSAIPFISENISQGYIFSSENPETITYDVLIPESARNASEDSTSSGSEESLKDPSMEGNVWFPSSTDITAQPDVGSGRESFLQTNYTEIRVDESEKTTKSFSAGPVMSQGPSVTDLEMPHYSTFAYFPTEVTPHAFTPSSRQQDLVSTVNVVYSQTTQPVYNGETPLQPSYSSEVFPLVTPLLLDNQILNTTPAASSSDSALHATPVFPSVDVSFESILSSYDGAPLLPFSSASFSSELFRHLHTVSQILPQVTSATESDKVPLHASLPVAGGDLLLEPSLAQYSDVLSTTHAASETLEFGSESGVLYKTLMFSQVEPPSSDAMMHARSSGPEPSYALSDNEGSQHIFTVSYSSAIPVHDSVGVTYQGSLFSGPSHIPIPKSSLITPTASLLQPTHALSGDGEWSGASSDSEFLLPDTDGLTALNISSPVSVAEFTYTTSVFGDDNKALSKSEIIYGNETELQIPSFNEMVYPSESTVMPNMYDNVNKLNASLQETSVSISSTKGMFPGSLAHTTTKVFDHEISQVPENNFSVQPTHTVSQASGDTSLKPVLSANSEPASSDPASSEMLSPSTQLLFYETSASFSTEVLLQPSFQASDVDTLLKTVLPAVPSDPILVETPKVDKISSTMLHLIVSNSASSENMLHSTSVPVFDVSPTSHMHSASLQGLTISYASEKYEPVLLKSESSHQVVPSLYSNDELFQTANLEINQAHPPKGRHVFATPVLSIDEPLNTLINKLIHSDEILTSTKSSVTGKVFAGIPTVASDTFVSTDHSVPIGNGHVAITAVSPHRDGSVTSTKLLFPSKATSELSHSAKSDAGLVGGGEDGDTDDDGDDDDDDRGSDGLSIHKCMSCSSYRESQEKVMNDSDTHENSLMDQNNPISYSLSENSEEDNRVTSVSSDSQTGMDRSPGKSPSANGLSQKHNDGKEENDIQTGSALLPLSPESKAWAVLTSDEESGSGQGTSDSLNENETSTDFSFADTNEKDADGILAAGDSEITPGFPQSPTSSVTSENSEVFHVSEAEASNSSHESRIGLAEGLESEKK
In words: SPR (Biacore T100), hPTP-ζ-ECD-Fc captured on Protein A, hIL-34 as analyte, steady state model; hIL-34 on full-length hPTP-ζ ECD-Fc. The procedure:
as §1

Assay [5] has as its target T4, human PTP-ζ (protein tyrosine phosphatase receptor type zeta) of U251 human glioblastoma cells (human, UniProt P23471 25-2315, chondroitin sulfate glycosaminoglycan chains (proteoglycan)).
T4 construct: Endogenous protein on intact U251 cells (flow cytometry) or in OG-solubilized U251 membrane lysates (pull-down); long (~400 kDa), non-glycosaminoglycanylated (300 kDa) and short (220 kDa) isoforms are present; U251 cells lack CSF-1R; also called PTP-β/ζ; cell-surface PTP-ζ
In words: flow cytometry on U251 cells, detection with biotin-labeled anti-FLAG M2 antibody.

The target in assay [6] is T3, human PTP-ζ extracellular domain fused …. In words: SPR (Biacore 3000), hPTP-ζ ECD-Fc immobilized on CM5 chip, hTN-R as analyte, steady state model; TN-R with hPTP-ζ ECD-Fc. How it is done:
as §1

For assay [7], the target named is T4, human PTP-ζ (protein tyrosine …). In words: flow cytometry on U251 cells, detection with biotin-labeled anti-FLAG M2 antibody, at concentrations equivalent to IL-34-FLAG. For orientation: Flow cytometry measures light scatter and fluorescence of single cells or particles in a stream.

As usually defined, the Kd is a measure of binding affinity in units of concentration. Read a high Kd as weaker binding.

T4 sequence (P23471 25-2315 limits assumed): as the sequence (P23471 25-2315 limits assumed) above

In [1], “human pleiotrophin (hPTN) (from UniProt P21246 33-168) (ligand)” returned a clonogenicity of U251 cells (colony count at 8 days) of 53% and a wound healing of U251 monolayer, time taken for 50% wound closure (t50) of 10 h.
For the molecule B1, the Kd in assay [2] is roughly 0.01 nM.
For the molecule B2, the Kd with human brevican is 3000 nM; with human tenascin-R (hTN-R) it was roughly 1000 nM; in assay [3], roughly 0.001 nM; in [4], roughly 100 nM.
Regarding B3, in assay [5], the binding result was “binds”.
Turning to B4, the Kd in assay [6] was roughly 10 nM.
Consider B5, for which the binding result in assay [7] is recorded as “no binding”.
